From patent publication US20240059799A1 (Pfizer, published 2024) come the findings set out here.

Test [1] deals with T1, recombinant human TL1A (human, UniProt O95150 71-251).
T1 chain: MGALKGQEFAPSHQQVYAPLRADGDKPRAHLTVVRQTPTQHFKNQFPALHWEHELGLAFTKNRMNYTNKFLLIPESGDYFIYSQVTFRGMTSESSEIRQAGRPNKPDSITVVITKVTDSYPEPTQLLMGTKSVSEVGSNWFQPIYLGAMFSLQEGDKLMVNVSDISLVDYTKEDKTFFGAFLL
Kind of test: cell-based or functional assay.

Test [2] concerns the target T2, human IL-23 (human, UniProt P29460 23-328; Q9NPF7 20-189).
T2 sequence 1: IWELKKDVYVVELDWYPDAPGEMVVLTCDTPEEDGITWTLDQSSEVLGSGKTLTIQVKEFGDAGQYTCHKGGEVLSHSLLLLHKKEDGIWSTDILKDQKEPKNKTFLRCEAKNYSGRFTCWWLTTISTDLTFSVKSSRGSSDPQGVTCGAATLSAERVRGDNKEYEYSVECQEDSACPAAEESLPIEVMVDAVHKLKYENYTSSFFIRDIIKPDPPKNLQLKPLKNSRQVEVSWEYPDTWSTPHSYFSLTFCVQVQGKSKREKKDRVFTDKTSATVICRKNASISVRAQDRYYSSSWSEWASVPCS
T2 sequence 2: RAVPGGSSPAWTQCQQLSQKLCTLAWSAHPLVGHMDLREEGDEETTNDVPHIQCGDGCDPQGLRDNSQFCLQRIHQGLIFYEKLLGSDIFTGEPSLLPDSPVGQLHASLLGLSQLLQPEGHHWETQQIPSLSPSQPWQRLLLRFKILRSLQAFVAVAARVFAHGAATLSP
Kind of test: cell-based or functional assay.

The target of a further test is T3, human IL-12 (human, UniProt P29460 23-328; P29459 23-219).
T3 sequence 1: T2 sequence 1
T3 sequence 2: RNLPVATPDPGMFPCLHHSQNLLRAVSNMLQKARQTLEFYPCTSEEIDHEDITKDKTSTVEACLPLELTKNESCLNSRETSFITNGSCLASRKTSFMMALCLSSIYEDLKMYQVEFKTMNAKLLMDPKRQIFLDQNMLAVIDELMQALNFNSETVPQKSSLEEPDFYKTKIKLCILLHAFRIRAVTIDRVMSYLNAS
Kind of test: cell-based or functional assay.

For test [3], the target named is T1, recombinant human TL1A. Kind of test: SPR, 37 C; biotinylated human TL1A captured on Biotin CAPture chip, antibody injected. The protocol: (§1) SPR was utilized to determine if the affinity constants of each arm of the bispecific variants binding human IL-23, containing the p40 subunit, and human TL1A were the same for each bispecific approach. For the analysis of the p40 binding arm, kinetic assays were conducted at 37° C. using a collection rate of 10 Hz on a Biacore™ 8 K+ instrument (GE Healthcare). An anti-human IgG antibody (anti-human Fc, GE Healthcare, 22-0648-88) was amine coupled to all four flow cells of a carboxymethylated dextran coated sensor chip (GE Healthcare,) using the manufacturer's recommended protocol. […] For the analysis of the TL1A binding arm, kinetic assays were conducted at 37° C. using a collection rate of 10 Hz on a Biacore™ T200 instrument (GE Healthcare).
(§2) As described above in EXAMPLE 12, SPR was utilized to determine if the affinity constants of each arm of the bispecific variants binding human IL-23, containing the p40 subunit, and human TL1A were the same for each bispecific variant.

Test [4] concerns the target T1, recombinant human TL1A. Kind of test: cell-based or functional assay.
Test [5] deals with T2, human IL-23. Put plainly: SPR, 37 C; antibody captured by anti-human Fc, human IL-23 injected. As to the method:
as §1, §2

Test [6] deals with T1, recombinant human TL1A. Kind of test: SPR, Biacore T200, 37 C; biotinylated TL1A captured on Biotin CAPture chip, antibody injected. As to the method: (§3) In order to determine binding to TL1A, kinetic assays were conducted at 37° C. using a collection rate of 10 Hz on a Biacore™ T200 instrument (GE Healthcare). […] For the analysis of the p40 binding arm, kinetic assays were conducted at 37° C. using a collection rate of 10 Hz on a Biacore™ 8 K+ instrument (GE Healthcare).
A general note: In SPR one partner is held on a chip, and binding of the other changes the refractive index at the surface.

The target of the next test is T4, recombinant rat TL1A (rat, UniProt Q8K3Y7 76-252).
T4 sequence: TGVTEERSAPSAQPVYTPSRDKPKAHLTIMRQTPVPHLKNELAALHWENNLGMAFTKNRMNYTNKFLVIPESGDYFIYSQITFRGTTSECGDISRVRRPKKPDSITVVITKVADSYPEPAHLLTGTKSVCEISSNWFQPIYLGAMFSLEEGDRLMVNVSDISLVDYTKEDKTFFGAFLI
Described as above. As to the method:
as §3

The target in test [7] is T5, recombinant cynomolgus monkey TL1A (cynomolgus monkey, UniProt O95150 72-251 (human entry)).
T5 construct: also called Cyno TL1A
T5 chain: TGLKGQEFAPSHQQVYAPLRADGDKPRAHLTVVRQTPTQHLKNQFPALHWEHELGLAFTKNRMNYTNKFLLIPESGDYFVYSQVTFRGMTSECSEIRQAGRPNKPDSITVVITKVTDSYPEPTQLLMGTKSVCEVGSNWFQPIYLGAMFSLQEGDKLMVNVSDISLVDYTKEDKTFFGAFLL
The description is as above. The protocol:
as §3

A further test addresses T6, recombinant mouse TL1A (mouse, UniProt Q5UBV8 75-252).
T6 chain: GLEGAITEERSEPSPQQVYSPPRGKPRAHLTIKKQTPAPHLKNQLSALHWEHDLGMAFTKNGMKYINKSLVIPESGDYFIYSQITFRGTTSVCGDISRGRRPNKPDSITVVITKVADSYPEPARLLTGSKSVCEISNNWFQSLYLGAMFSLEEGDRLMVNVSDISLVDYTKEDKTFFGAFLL
The test is described as above. The protocol:
as §3

B1: p40TL1A-0033 bispecific antibody (bispecific antibody, human IgG1, kappa)
heavy: EVQLVQSGAEVKKPGESLKISCKGSGYSFTTYWLGWVRQMPGKGLDWIGIMSPVDSDIRYSPSFQGQVTMSVDKSITTAYLQWNSLKASDTAMYYCARRRPGQGYFDFWGQGTLVTVSSASTKGPSVFPLAPSSKSTSGGTAALGCLVKDYFPEPVTVSWNSGALTSGVHTFPAVLQSSGLYSLSSVVTVPSSSLGTQTYICNVNHKPSNTKVDKKVEPKSCDKTHTCPPCPAPEAAGAPSVFLFPPKPKDTLMISRTPEVTCVVVDVSHEDPEVKFNWYVDGVEVHNAKTKPREEQYNSTYRVVSVLTVLHQDWLNGKEYKCKVSNKALPAPIEKTISKAKGQPREPQVCTLPPSREEMTKNQVSLWCLVKGFYPSDIAVEWESNGQPENNYKTTPPVLDSDGSFFLYSKLTVDKSRWQQGNVFSCSVLHEALHSHYTQKSLSLSPGK
light: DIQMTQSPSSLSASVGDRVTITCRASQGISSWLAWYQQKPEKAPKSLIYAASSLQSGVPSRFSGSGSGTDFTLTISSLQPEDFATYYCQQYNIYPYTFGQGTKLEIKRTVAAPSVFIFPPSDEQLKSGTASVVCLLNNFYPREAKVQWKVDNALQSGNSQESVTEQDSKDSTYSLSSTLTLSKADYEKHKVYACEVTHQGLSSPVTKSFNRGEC
chain 1: not shown
chain 2: QVQLVQSGAEVKKPGASVKVSCKASGYDYTYYGISWVRQAPGQGLEWMGWISTYNTGTHYAPSLQGRVTMTTDTSTSTAYMELRSLRSDDTAVYYCARESYYGSGAFRGGMDVWGQGTTVTVSSASTKGPSVFPLAPSSKSTSGGTAALGCLVKDYFPEPVTVSWNSGALTSGVHTFPAVLQSSGLYSLSSVVTVPSSSLGTQTYICNVNHKPSNTKVDKKVEPKSC
notes: Single cell KiH, modified Fd format; IgG1 effector-function-minimized Fc with LS mutations
For the molecule B1, in the test with recombinant human TL1A [1], the “NF-κB assay IC50 (TF-1 reporter cells)” value worked out at 131 pM. In addition, in the test with recombinant human TL1A [1], the “NF-κB assay, Bioactivity relative to TL1A-0372” value was 1.3 fold. In addition, the “KIT-225 STAT3 assay IL-23, Bioactivity relative to p40-0003” value with human IL-23 [2] came out at 1.4 fold. Moreover, in the test with human IL-23 [2], the “KIT-225 STAT3 assay IL-23 IC50” value turned out to be 2300 pM. For the same molecule, in the test with human IL-12, the “KIT-225 STAT4 assay IL-12, Bioactivity relative to p40-0003” value amounted to 1.4 fold. Further, the “KIT-225 STAT4 assay IL-12 IC50” value with human IL-12 came to 4800 pM. Also, the Kd with recombinant human TL1A [3] came out at 622 pM; with recombinant human TL1A [6] it was 340 pM; in [7] it was 1090 pM; with recombinant mouse TL1A, 288000 pM. Besides, the koff was determined as 8.21e-05 s⁻¹ with recombinant human TL1A [3]; 0.00056 s⁻¹ with human IL-23 [5]; 5.05e-05 s⁻¹ with recombinant human TL1A [6]; 0.0562 s⁻¹ with recombinant rat TL1A; 0.000127 s⁻¹ in test [7]; 0.00761 s⁻¹ with recombinant mouse TL1A. The kon with recombinant human TL1A [3] stood at 132000 M⁻¹ s⁻¹; with human IL-23 [5] it was 2.28e+06 M⁻¹ s⁻¹; with recombinant human TL1A [6], 150000 M⁻¹ s⁻¹; with recombinant rat TL1A, 52400 M⁻¹ s⁻¹; in [7] it was 117000 M⁻¹ s⁻¹; with recombinant mouse TL1A, 26700 M⁻¹ s⁻¹. For the same molecule, in the test with recombinant human TL1A [4], the “NF-κB assay IC50 (TF-1 reporter cells, 384-well)” value is 310 pM.

The Kd is a measure of binding affinity in units of concentration. For orientation: koff means the rate constant with which the complex falls apart. For orientation: kon means the rate constant with which the complex forms.
